# Earlier results in patent publication US20070014786A1, “Methods for treating taxol-induced gut disorder” (RINAT NEUROSCIENCE CORP., priority 2003, published 2007).
# T1: low affinity receptor (LNGFR), p75NTR or p75 (Homo sapiens, UniProt P08138)
# T1 sequence (P08138 29-427): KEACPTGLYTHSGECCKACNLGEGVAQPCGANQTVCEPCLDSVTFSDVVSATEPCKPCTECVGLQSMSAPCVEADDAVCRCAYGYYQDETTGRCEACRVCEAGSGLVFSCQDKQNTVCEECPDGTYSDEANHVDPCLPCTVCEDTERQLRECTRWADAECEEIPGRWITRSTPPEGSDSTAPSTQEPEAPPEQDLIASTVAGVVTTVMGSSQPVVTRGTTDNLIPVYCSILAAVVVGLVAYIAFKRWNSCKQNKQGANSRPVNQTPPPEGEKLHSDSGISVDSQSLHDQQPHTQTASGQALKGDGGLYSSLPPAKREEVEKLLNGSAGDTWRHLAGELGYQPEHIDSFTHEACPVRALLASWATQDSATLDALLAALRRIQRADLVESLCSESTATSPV
# Biological target: T1, low affinity receptor (LNGFR), p75NTR or p75
# Details: according to current knowledge (background)
row,Kd,Molecule
1,2 nM,"neurotrophin-4/5 (protein, UniProt P34130 81-210, looked up, neurotrophin family member) Neurotrophin-4: GVSETAPASRRGELAVCDAVSGWVTDRRTAVDLRGREVEVLGEVPAAGGSPLRQYFFETRCKADNAEEGGPGAGGGGCRGVDRRHWVSECKAKQSYVRALTADAQGRVGWRWIRIDTACVCTLLSRTGRA"
2,2 nM,"brain-derived neurotrophic factor (protein, UniProt P23560 19-247, looked up, neurotrophin family member) Neurotrophic factor BDNF …: APMKEANIRGQGGLAYPGVRTHGTLESVNGPKAGSRGLTSLADTFEHVIEELLDEDQKVRPNEENNKDADLYTSRVMLSSQVPLEPPLLFLLEEYKNYLDAANMSMRVRRHSDPARRGELSVCDSISEWVTAADKKTAVDMSGGTVTVLEKVPVSKGQLKQYFYETKCNPMGYTKEGCRGIDKRHWNSQCRTTQSYVRALTMDSKKRIGWRFIRIDTSCVCTLTIKRGR"
